{
  "source": "paper PMC11300593",
  "experiment_in_all_cases": "dynamic light scattering; DLS at 20 mg/ml, 25 °C, with and without ammonium sulfate; dimer to monomers",
  "key": {"[1]": {"biological_target": "12-oxophytodienoate reductase 3 from tomato (SlOPR3), wild type (tomato) (UniProt Q9FEW9)"}, "[2]": {"biological_target": "SlOPR3 variant Y364P (tomato) (UniProt Q9FEW9)"}, "[3]": {"biological_target": "SlOPR3 variant R283E (tomato) (UniProt Q9FEW9)"}},
  "data": [
    {"substance": "12-oxophytodienoate reductase 3 from tomato (SlOPR3), wild type (from UniProt Q9FEW9 1-396) (enzyme)", "values": [
      {"measurement": "stoichiometry N", "setting": "[1]", "result": 2}
    ]},
    {"substance": "SlOPR3 variant Y364P (from UniProt Q9FEW9 1-396) (enzyme)", "values": [
      {"measurement": "stoichiometry N", "setting": "[2]", "result": 2}
    ]},
    {"substance": "SlOPR3 variant R283E (from UniProt Q9FEW9 1-396) (enzyme)", "values": [
      {"measurement": "stoichiometry N", "setting": "[3]", "result": 2}
    ]}
  ]
}
